# Experimental data published in IntAct's records for PubMed 16328881.
# B1: Minichromosome maintenance protein 10 (Saccharomyces cerevisiae), P32354 (parent)
# chain: MNDPREILAVDPYNNITSDEEDEQAIARELEFMERKRQALVERLKRKQEFKKPQDPNFEAIEVPQSPTKNRVKVGSHNATQQGTKFEGSNINEVRLSQLQQQPKPPASTTTYFMEKFQNAKKNEDKQIAKFESMMNARVHTFSTDEKKYVPIITNELESFSNLWVKKRYIPEDDLKRALHEIKILRLGKLFAKIRPPKFQEPEYANWATVGLISHKSDIKFTSSEKPVKFFMFTITDFQHTLDVYIFGKKGVERYYNLRLGDVIAILNPEVLPWRPSGRGNFIKSFNLRISHDFKCILEIGSSRDLGWCPIVNKKTHKKCGSPINISLHKCCDYHREVQFRGTSAKRIELNGGYALGAPTKVDSQPSLYKAKGENGFNIIKGTRKRLSEEEERLKKSSHNFTNSNSAKAFFDEKFQNPDMLANLDNKRRKIIETKKSTALSRELGKIMRRRESSGLEDKSVGERQKMKRTTESALQTGLIQRLGFDPTHGKISQVLKSSVSGSEPKNNLLGKKKTVINDLLHYKKEKVILAPSKNEWFKKRSHREEVWQKHFGSKETKETSDGSASDLEII
# Variants of: B1
# Details: with sir3_yeast SIR3, P06701
# Sequence of sir3_yeast SIR3, P06701 (P06701 whole entry): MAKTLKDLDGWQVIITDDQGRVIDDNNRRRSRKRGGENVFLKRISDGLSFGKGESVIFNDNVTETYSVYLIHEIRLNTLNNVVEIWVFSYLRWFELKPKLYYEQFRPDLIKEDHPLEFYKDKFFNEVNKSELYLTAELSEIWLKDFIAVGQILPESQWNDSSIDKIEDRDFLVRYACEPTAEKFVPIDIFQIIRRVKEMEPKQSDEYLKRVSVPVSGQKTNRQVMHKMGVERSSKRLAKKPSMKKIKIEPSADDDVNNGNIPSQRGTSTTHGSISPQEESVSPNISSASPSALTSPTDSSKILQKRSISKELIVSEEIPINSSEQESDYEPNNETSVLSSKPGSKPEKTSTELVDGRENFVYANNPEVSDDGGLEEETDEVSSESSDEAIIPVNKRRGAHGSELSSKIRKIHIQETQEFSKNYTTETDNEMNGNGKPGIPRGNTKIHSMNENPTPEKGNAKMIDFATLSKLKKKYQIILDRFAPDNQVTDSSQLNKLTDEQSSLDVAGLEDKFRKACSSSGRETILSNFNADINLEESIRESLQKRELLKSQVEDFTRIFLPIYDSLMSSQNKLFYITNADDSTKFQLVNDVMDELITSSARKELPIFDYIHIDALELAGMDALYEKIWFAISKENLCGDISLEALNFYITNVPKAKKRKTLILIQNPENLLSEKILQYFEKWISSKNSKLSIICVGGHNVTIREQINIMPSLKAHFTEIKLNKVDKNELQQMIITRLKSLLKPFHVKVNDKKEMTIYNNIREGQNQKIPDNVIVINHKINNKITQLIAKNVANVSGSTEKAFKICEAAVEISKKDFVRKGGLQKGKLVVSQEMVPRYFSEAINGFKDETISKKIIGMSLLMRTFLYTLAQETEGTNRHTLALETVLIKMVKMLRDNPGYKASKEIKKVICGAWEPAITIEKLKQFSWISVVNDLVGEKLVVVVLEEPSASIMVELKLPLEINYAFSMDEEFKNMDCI
row,effect of a mutation on the interaction,Variant
1,disrupting interaction strength,C320Y
2,disrupting interaction strength,P269L

# Variants of: B1
# Details: with sir2_yeast SIR2, P06700
# Sequence of sir2_yeast SIR2, P06700 (P06700 whole entry): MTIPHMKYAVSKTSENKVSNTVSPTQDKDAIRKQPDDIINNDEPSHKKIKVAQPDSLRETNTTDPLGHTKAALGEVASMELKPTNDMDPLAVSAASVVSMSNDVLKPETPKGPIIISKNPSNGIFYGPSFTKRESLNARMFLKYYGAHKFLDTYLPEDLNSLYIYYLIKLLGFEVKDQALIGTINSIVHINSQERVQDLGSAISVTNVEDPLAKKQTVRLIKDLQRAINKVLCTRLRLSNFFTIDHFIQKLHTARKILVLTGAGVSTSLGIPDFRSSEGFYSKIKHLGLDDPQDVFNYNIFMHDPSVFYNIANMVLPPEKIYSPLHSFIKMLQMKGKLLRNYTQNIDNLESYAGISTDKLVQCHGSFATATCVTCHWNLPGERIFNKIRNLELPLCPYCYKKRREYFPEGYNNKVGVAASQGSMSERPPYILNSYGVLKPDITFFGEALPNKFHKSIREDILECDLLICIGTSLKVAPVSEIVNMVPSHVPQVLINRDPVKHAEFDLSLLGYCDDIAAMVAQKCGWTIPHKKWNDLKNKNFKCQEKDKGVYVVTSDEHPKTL
row,effect of a mutation on the interaction,Variant
1,disrupting interaction strength,P269L
